Data taken from the supplement of paper PMC10567573.

B1: ANKRD44 (parent)
chain: FHCIETLVTTGANVNETDDWGRTA
B2: FLOT1 (parent)
chain: QMAKKAEAFQLYQEAAQLDMLLEK

Variants of: B1
Test: protein stability index of a GFP-peptide fusion (GPS, HEK-293T) (PSI 1-6); higher = more stable
Conditions: c terminus: a fixed tail appended
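Further: lentivirally expressed fusions sorted by FACS into six bins by GFP to DsRed ratio, PSI derived from sequencing read proportions per bin multiplied by bin number.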

Protein stability index, by site and new letter:
V14: T 2.93 | C 2.19 | A 2.2 | H 1.94 | E 3.04 | S 2.41 | P 2.71 | K 2.31 | Q 2.11 | L 2.08 | F 2.14 | Y 1.77 | D 2.26 | N 3 | M 2.07 | I 1.82 | W 1.54 | G 1.86 | R 2.61
H2: M 2.64 | R 3.46 | T 3.08 | L 2.31 | Y 1.89 | F 1.8 | E 3.9 | N 3.37 | Q 3.27 | I 1.62 | A 2.89 | S 3.36 | D 4.54 | K 3.34 | V 1.74 | C 2.05 | P 3.77 | W 1.68 | G 3.71
T10: K 2.24 | M 1.71 | V 2.17 | L 1.65 | N 2.66 | E 2.37 | I 1.7 | R 2.34 | G 1.92 | C 1.96 | S 2.08 | Y 2.14 | Q 2.63 | D 3.46 | A 1.72 | P 2.36 | H 2.08 | W 2.68
T9: F 1.25 | Q 2.63 | G 2.7 | D 3.26 | M 1.45 | V 1.6 | P 2.06 | E 3.12 | Y 1.54 | H 2.18 | I 2.67 | N 2.56 | A 2.01 | K 2.83 | L 1.77 | C 1.78 | R 1.86 | S 2.23
T6: N 2.52 | Q 2.16 | L 3.01 | P 2.08 | M 2.18 | S 2.71 | V 3.28 | W 3.88 | F 2.03 | R 1.96 | A 2.16 | C 1.75 | K 1.93 | G 1.73 | E 2.69 | Y 3.59 | D 3.61 | H 2.52
E5: D 2.23 | G 2.11 | C 2.02 | W 2.26 | P 2.43 | R 1.55 | Y 3.36 | S 1.92 | Q 1.48 | A 2.31 | I 2.98 | T 1.82 | N 2.03 | K 2.14 | L 4.06 | H 2.76
F1: C 2.18 | H 4.18 | L 3.31 | T 4.25 | N 4.5 | I 3.13 | Q 4.54 | M 4.54 | R 3.48 | E 4.77 | G 4.25 | K 4.18 | D 4.81 | A 4.69 | Y 2.07 | S 4.04 | W 3.18 | V 3.68 | P 4.56
A12: M 2.14 | P 1.81 | K 2.07 | W 3.07 | H 2.1 | C 1.1 | G 1.52 | L 2.45 | F 2.61 | N 2.07 | E 2.31 | Y 1.88 | I 1.7 | S 2.73 | T 2.82 | D 1.87 | V 1.59 | R 2.33 | Q 2.09
N13: Q 2.3 | L 2.11 | A 2.56 | I 2.31 | G 2.21 | T 2.18 | E 1.69 | H 2.13 | R 2.1 | C 1.59 | W 1.77 | Y 1.68 | V 2.61 | S 2.39 | M 1.5 | P 2.41 | D 2.51 | F 3.16 | K 2.36
G11: V 2.09 | R 2.6 | C 2.09 | Q 1.74 | T 2.29 | A 1.79 | K 2.29 | W 2.99 | I 2.62 | M 1.5 | L 2.44 | F 1.47 | S 1.68 | D 2.88 | P 2.23 | N 2 | Y 2.39 | E 2.94 | H 1.53
V8: Y 2.27 | L 1.4 | S 3.12 | R 2.15 | I 1.8 | K 2.42 | E 3.35 | M 2.2 | Q 3 | N 2.86 | A 2.05 | P 3.48 | H 2.45 | T 2.29 | C 2.03 | F 2.26 | D 3.76 | G 1.89
N15: D 2.29 | C 1.9 | A 1.76
L7: G 2.42 | R 2.66 | V 2.19 | H 2.56 | A 2.2 | I 2.23 | M 2.19 | T 2.85 | Y 3.58 | E 3.82 | N 3.08 | K 2.89 | D 4.03 | P 3.04 | C 2.01 | Q 2.49 | F 2.86 | S 2.57
C3: S 2.69 | F 2 | M 2.31 | T 2.65 | P 3.36 | H 2.79 | Q 3.03 | I 1.78 | G 2.89 | N 2.21 | E 3.96 | V 2.62 | R 2.47 | D 3.62 | Y 2.19 | K 3.8 | L 2.05 | A 1.79 | W 2.47
I4: H 2.15 | A 2.1 | E 3.59 | L 2.65 | F 2.36 | G 2.66 | P 2.19 | R 2.61 | C 2.33 | N 2.87 | T 2.87 | S 2.69 | K 2.11 | V 2.44 | Y 1.9 | W 3.86 | M 2.16 | Q 2 | D 3.41

Variants of: B2
Test: as above
Conditions: c terminus: a fixed tail appended

Protein stability index: each site, then its substitutions
L21: V 2.35 | R 3.19 | E 2.7 | Y 2.04 | H 3.47 | W 1.69 | I 2 | M 1.84 | F 2.35 | S 3.46 | T 2.97 | G 4.02 | P 4.51 | Q 1.75 | N 3.38 | K 2.19
L22: S 2.63 | C 2.42 | R 2.42 | F 2.23 | K 3.07 | H 2.48 | Q 2.08 | V 2.33 | E 1.61 | M 2.02 | A 1.32 | I 1.72 | D 2.54 | T 3.36 | N 2.03 | G 3.76 | W 1.5 | P 3.9 | Y 1.5
K24: R 2.13 | M 2.23 | C 2.28 | S 3.36 | L 2.08 | G 2.89 | Y 2.35 | Q 2.55 | N 2.83 | V 1.73 | E 4.03 | T 3.03 | W 2.57 | F 2.2 | D 3.76 | H 2.67 | A 2.53 | I 3.41 | P 3.37
E23: P 3.12 | G 3.26 | Q 1.75 | W 1.98 | M 1.28 | H 2.15 | N 2.35 | L 2.21 | F 1.72 | K 2.11 | D 3.79 | Y 1.81 | I 1.62 | R 1.39 | V 1.98 | S 2.53 | T 1.51 | C 2.27 | A 2.29
